The target in test [1] is 7C7, recombinant IgG2c antibody. The experiment in a line: inhibition ELISA 2nd protocol: antigen in solution varied, antibody 7C7, plate coated with G200-BSA peptide. As to the method:
(§1) The pre-incubated samples were transferred (50 μl/well) to the blocked ELISA plates, and plates were incubated for 25 min at room temperature without shaking. Plates were washed as described above. Alkaline phosphatase conjugated anti-mouse IgG detection antibody (Mabtech, cat. no. 3310-4) was diluted 1:1000 and added to each plate (50 μl/well). The plate was sealed and incubated with shaking (900 rpm) for 45 min at room temperature and subsequently washed as described above. Alkaline phosphatase substrate (50 μl/well) was added to the plate and the optical density was read every 15 min at a wavelength of 405 nm for up to 120 min. The IC50 values were determined from a log inhibitor concentration response curve (FIG. 17).
(§2) In addition, a second inhibition ELISA with the ApoE peptides conjugated to BSA was run, in which the starting concentration of the antigens in solution was increased 10-fold. i.e. the starting concentration of the N-terminal neo-epitope of synthetic ApoE peptides conjugated to BSA and starting at amino acid L198 (SEQ ID NO:52), A199 (SEQ ID NO:51) or G200 (SEQ ID NO:50), or to BSA-conjugated negative control peptide (SEQ ID NO:53), was 10000 ng/ml. […] IC50 values were determined from a log inhibitor concentration response curve (FIG. 20).
A general note: ELISA stands for enzyme-linked immunosorbent assay.

Test [2] addresses 28F2, recombinant IgG2c antibody. The experiment in a line: inhibition ELISA 2nd protocol: antigen in solution varied, antibody 28F2, plate coated with G200-BSA peptide. As to the method:
(§3) […] of each synthetic ApoE peptide, recombinant C-terminal ApoE fragment G200-HIS and full-length ApoE4 were prepared by 4-fold dilution starting from 1000 ng/ml in 96 well storage plates (30 μl final volume). Each recombinant antibody to be tested was added (30 μl) to the serial dilutions of each of the synthetic ApoE peptides, G200-HIS or full-length ApoE4 at a final concentration of 0.05 μg/ml per well. Samples were pre-incubated for 45 min at room temperature with shaking (900 rpm).
as §1, with “17). […]” for “17).”

For test [3], the target named is 36A12, monoclonal anti-A199 antibody. The experiment in a line: inhibition ELISA; antibody at 0.05 ug/ml pre-incubated with the peptide in solution (4-fold dilutions from 10000 ng/ml), then on a plate coated with A199-BSA peptide; blank reduced OD 405 nm. On the procedure:
(§4) 0.5 μg/ml solution of N-terminal neo-epitope peptide A199 (SEQ ID NO:51) conjugated to BSA was prepared by dilution in PBS. 50 μl/well were added to an ELISA half-area 96 well microtiter plate, the plate was sealed with adhesive sealer and incubated over night at 4° C. After discarding the solution, the plates were blocked with protein-free blocking solution (Pierce) (150 μl/well) at room temperature for 90 min with shaking (900 rpm). The blocked plate was washed four times with washing buffer containing 0.28 mM NaH₂PO₄, 2.5 mM Na₂HPO₄, 150 mM NaCl, 0.1% TWEEN®-20 and 0.0075% Kathon CG.
(§5) Serial dilutions of each synthetic ApoE peptide were prepared by 4-fold dilution starting from 10000 ng/ml in 96 well storage plates (30 μl final volume). Each purified monoclonal antibody to be tested was added (30 μl) to the serial dilutions of each of the synthetic ApoE peptides at a final concentration of 0.05 μg/ml per well. Samples were pre-incubated for 45 min at room temperature with shaking (900 rpm).
as §1, with “10” for “25”, “10” for “15”, “29).” for “17).”

The target of test [4] is 38G9, monoclonal anti-A199 antibody. The description is as above. As to the method:
as §4, §5
as §1, with “10” for “25”, “10” for “15”, “29).” for “17).”

In test [5] the target is 23D5, recombinant IgG2c antibody. As to the kind of experiment: inhibition ELISA 2nd protocol: antigen in solution varied, antibody 23D5, plate coated with G200-BSA peptide. As to the method:
as §1, §2

Test [6] addresses T1, 7B10, recombinant IgG2c antibody.
T1 construct: also called 7610
The experiment in a line: inhibition ELISA 2nd protocol: antigen in solution varied, antibody 7B10, plate coated with G200-BSA peptide. As to the method: as §3
as §1, with “17). […]” for “17).”

Test [7] has as its target 17G4, recombinant IgG2c antibody. As to the kind of experiment: inhibition ELISA 2nd protocol: antigen in solution varied, antibody 17G4, plate coated with G200-BSA peptide. As to the method:
as §1, §2

Test [8] has the same target. As to the kind of experiment: inhibition ELISA: antigen in solution varied, antibody 17G4 at 0.05 µg/ml, plate coated with G200-BSA peptide. On the procedure: as §1
The target of test [9] is 28F2, recombinant IgG2c antibody. The experiment in a line: inhibition ELISA: antigen in solution varied, antibody 28F2 at 0.05 µg/ml, plate coated with G200-BSA peptide. As to the method: as §3, §1
Test [10] addresses 23D5, recombinant IgG2c antibody. As to the kind of experiment: inhibition ELISA: antigen in solution varied, antibody 23D5 at 0.05 µg/ml, plate coated with G200-BSA peptide. On the procedure:
as §1

The target in test [11] is 6F4, monoclonal anti-L198 antibody. As to the kind of experiment: inhibition ELISA; antibody at 0.05 ug/ml pre-incubated with the peptide in solution (4-fold dilutions from 10000 ng/ml), then on a plate coated with L198-BSA peptide; blank reduced OD 405 nm. As to the method: (§6) 0.5 μg/ml solution of N-terminal neo-epitope peptide L198 (SEQ ID NO:52) conjugated to BSA was prepared by dilution in PBS. 50 μl/well were added to an ELISA half-area 96 well microtiter plate, the plate was sealed with adhesive sealer and incubated over night at 4° C. After discarding the solution, the plates were blocked with protein-free blocking solution (Pierce) (150 μl/well) at room temperature for 90 min with shaking (900 rpm). The blocked plate was washed four times with washing buffer containing 0.28 mM NaH₂PO₄, 2.5 mM Na₂HPO₄, 150 mM NaCl, 0.1% TWEEN®-20 and 0.0075% Kathon CG.
(§7) Serial dilutions of each synthetic ApoE peptide were prepared by 4-fold dilution starting from 10000 ng/ml in 96 well storage plates (30 μl final volume). Each recombinant antibody to be tested was added (30 μl) to the serial dilutions of each of the synthetic ApoE peptides at a final concentration of 0.05 μg/ml per well. Samples were pre-incubated for 45 min at room temperature with shaking (900 rpm).
as §1, with “10” for “25”, “10” for “15”, “25).” for “17).”

The target of test [12] is 15F8, monoclonal anti-L198 antibody. The test is described as above. On the procedure:
as §6, §7
as §1, with “10” for “25”, “10” for “15”, “25).” for “17).”

Test [13] concerns the target T1, 7B10, recombinant IgG2c antibody. As to the kind of experiment: inhibition ELISA: antigen in solution varied, antibody 7B10 at 0.05 µg/ml, plate coated with G200-BSA peptide. On the procedure: as §1
Test [14] concerns the target 7C7, recombinant IgG2c antibody. The experiment in a line: inhibition ELISA: antigen in solution varied, antibody 7C7 at 0.05 µg/ml, plate coated with G200-BSA peptide. On the procedure:
as §1

We go through 1 molecule from patent US20220242939A1 (BIOARCTIC, published 2022).

Non-standard residues stand in square brackets, D forms with d. No end group written: not given here. Ahx = NCCCCCC(=O)O

By IC50 is commonly meant the midpoint of a concentration-inhibition curve.

17G4, recombinant IgG2c antibody, sequence (VH, as listed by the source, chain 1 of 2): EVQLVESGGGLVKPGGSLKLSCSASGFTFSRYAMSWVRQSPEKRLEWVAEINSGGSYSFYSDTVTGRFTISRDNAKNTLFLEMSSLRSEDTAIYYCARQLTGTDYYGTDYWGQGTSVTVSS
17G4, recombinant IgG2c antibody, sequence (VL, as listed by the source, chain 2 of 2): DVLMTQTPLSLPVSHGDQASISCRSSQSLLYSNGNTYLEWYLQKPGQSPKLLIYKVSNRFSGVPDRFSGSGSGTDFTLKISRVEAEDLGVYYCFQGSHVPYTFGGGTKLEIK
T1 sequence (VH, as listed by the source, chain 1 of 2): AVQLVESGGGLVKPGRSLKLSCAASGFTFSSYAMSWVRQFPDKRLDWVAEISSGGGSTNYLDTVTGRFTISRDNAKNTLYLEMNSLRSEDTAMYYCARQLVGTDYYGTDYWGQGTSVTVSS
T1 sequence (VL, as listed by the source, chain 2 of 2): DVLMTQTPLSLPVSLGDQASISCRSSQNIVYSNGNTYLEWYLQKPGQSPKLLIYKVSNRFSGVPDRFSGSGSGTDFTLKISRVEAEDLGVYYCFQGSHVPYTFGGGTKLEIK
7C7, recombinant IgG2c antibody, sequence (VH, as listed by the source, chain 1 of 2): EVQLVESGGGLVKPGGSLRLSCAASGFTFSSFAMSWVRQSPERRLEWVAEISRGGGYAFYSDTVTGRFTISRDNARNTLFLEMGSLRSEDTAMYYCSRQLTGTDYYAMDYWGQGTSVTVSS
7C7, recombinant IgG2c antibody, sequence (VL, as listed by the source, chain 2 of 2): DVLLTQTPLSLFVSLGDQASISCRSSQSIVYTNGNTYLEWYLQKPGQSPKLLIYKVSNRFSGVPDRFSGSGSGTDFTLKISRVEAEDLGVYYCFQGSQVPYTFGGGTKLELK
23D5, recombinant IgG2c antibody, sequence (VH, as listed by the source, chain 1 of 2): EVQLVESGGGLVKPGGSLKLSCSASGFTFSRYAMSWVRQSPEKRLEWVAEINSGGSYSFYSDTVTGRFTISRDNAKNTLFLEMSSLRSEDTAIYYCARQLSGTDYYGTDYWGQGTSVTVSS
28F2, recombinant IgG2c antibody, sequence (VH, as listed by the source, chain 1 of 2): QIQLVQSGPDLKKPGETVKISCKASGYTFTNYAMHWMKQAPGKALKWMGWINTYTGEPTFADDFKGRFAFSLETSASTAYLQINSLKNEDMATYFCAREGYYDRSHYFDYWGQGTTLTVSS
28F2, recombinant IgG2c antibody, sequence (VL, as listed by the source, chain 2 of 2): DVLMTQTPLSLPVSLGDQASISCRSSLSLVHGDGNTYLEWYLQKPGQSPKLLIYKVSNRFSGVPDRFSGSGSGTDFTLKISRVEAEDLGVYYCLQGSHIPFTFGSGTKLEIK
36A12, monoclonal anti-A199 antibody, sequence (VH, as listed by the source, chain 1 of 2): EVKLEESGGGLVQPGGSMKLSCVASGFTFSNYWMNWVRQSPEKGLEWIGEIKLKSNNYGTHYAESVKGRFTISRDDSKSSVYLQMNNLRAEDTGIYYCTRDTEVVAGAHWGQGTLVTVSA
36A12, monoclonal anti-A199 antibody, sequence (VL, as listed by the source, chain 2 of 2): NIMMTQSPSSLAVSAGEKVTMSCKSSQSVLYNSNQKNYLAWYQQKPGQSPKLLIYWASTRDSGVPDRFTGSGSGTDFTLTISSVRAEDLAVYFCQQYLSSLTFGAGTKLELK
6F4, monoclonal anti-L198 antibody, sequence (VH, as listed by the source, chain 1 of 2): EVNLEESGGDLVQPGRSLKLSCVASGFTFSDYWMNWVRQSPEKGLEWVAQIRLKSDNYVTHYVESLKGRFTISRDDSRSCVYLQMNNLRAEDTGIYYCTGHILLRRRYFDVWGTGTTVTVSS
6F4, monoclonal anti-L198 antibody, sequence (VL, as listed by the source, chain 2 of 2): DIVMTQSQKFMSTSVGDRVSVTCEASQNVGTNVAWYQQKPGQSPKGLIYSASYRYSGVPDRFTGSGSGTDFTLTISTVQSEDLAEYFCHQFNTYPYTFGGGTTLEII
15F8, monoclonal anti-L198 antibody, sequence (VH, as listed by the source, chain 1 of 2): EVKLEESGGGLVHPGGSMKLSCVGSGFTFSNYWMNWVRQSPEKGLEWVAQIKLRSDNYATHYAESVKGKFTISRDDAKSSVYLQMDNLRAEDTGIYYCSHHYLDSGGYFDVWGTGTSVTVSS
15F8, monoclonal anti-L198 antibody, sequence (VL, as listed by the source, chain 2 of 2): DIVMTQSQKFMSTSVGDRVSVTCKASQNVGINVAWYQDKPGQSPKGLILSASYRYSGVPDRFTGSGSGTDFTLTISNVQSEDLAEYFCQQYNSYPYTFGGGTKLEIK
38G9, monoclonal anti-A199 antibody, sequence (VH, as listed by the source, chain 1 of 2): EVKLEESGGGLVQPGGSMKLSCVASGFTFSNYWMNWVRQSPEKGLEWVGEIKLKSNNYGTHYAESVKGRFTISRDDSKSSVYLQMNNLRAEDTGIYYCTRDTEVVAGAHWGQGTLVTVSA
38G9, monoclonal anti-A199 antibody, sequence (VL, as listed by the source, chain 2 of 2): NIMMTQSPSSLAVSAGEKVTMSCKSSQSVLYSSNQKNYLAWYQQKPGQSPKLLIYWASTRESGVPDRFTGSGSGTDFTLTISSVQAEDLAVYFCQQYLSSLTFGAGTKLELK

B1: G200 N-terminal neo-epitope peptide GQPLQE-Acp-C (SEQ ID NO:50) conjugated to BSA (peptide)
peptide: GQPLQE[Ahx]C
modifications: not fully specified (residue 8); printed as GQPLQE-Acp-C; also: C-terminal Cys conjugated to BSA carrier
notes: also called G200-BSA peptide; G200-peptide
Turning to B1, the IC50 in test [1] was found to be 6.3 ng/mL; in [2] it was 3.7 ng/mL; in test [5], 3.8 ng/mL; in [6] it was 5.8 ng/mL; in test [7], 5.8 ng/mL; in test [8] it was 2.9 ng/mL. The IC50 in test [9] was determined as 3.2 ng/mL; in [10], 2.8 ng/mL; in test [13], 2.2 ng/mL; in test [14], 3.1 ng/mL. In addition, the binding result in test [3], in test [4], in [11] and in test [12] was “no binding (tested: 10000 ng/ml)” throughout.
